Assay: soluble on expression in E. coli; label from the status in PepcDB or PDB records
In the case of “MDLRTANVTRYILPLREGGSLPALAEADDEFKYVVKFRGAGHGTKALIAELIGGEIARTLGFRVPEIIFLNLDEAFGRTEADEEIQDLLQWSRGLNIGLHFLSGALTFDPVVHQVDGKTASQIVWMDAFLTNVDRTIKNTNMLMWHKELWLIDHGASLYFQHSWTNWQKQALTPFVQIKDHVLLPFADQLKETDMAFRQLLTSDKIWEIVNTVPDDWLNWTEGQETPQDLRDIYIQFLEERIKHSELFVNEAQHARKALI”, the “soluble on expression in E. coli” value is reported as “not soluble”.
In the case of “MSLTPSMRRTRIVCISDTHNCQVKLPEGDVLIHAGDLTNQGSHAELAKTVAWLEKQDFEAKIVIAGNHDITLDPEFYAEHGLYFHNKNPQSHDECLRLFTSSPSITYLSHGSANISLTSPSGPRTHFKVFGSPYSPRHGLWAFYYDAPQNPSNWSDLTSLWESIPLDTDIVVTHTPPRMHCDETDERRATGCEALRQALWRVRPQLVVCGHIHDGRGAERVMWDLNCRNVAYQEESVVRWEDPGQGNNKTCLVDLTGKKAPSEGHHHHHH”, the “soluble on expression in E. coli” value is reported as “soluble”.
For “MSLKIAVIGCGAMGSIYAAKLAAAGEQVLAVDRHRPSVERINRDGLRVTGPGCDQVVPLRASTGAVDETMDLVVLAVKAADVEAAARQALPMLGPDTAVLTIQNGLGSAETVAGVVGAQRVAVGIASGFGASRVAPGHVHHNAMRAMRFGPYSSLPHARVESIARTWAHAGFDAAAVTDIAAMQWEKLICNVAYSAPCALTGMTVGQVMDDAEMGPVSRAAATEAWSVARASGVAIAVADAVEHVRAFGAQMPDAKPSALLDHEARRVSEIDVINGAVPRQGARVGVDAPVNATLTAVVKSIERRWREGHHHHHH”, the “soluble on expression in E. coli” value was “not soluble”.
With “MAKATYACVECGYRTPKPLGRCPSCGSWESFQEVAPAPASRRAKPSPLPLLALSQVDEAEERRFSSGLSEVDRVLGGGFVTGEVVLLGGEPGVGKSTLLLEMAKRMPQRVYYVAGEESPAQIKLRAQRLGVKDLLLVRETRLEPLLALLEEDPPEVLFVDSVQTLEAGGSPGSLVAVREATSALVRFAKERGVAVVLVGHVTKEGVVAGPKSVEHAVDATLYLETAGPYRVLRSAKNRFGPVGEIGVFRMEEAGLLEVENPSEAFLKERPLGVPGSAVALALAGERALALEVQALAAKTPFPAPRRVVQGLDGRRVDVVLAVLERRLGLPLANLDVYVNLAGGLKVQDPGLDLAVALAVYSAVVGRPLPVDLALVGEVGLAGEVRRVAVLERRLREGERAGFGRFLHPGNLKRLQEAVEAYLA” the “soluble on expression in E. coli” value was “soluble”.
For “MSRVSTAPSGKPTAAHALLSRLRDHGVGKVFGVVGREAASILFDEVEGIDFVLTRHEFTAGVAADVLARITGRPQACWATLGPGMTNLSTGIATSVLDRSPVIALAAQSESHDIFPNDTHQCLDSVAIVAPMSKYAVELQRPHEITDLVDSAVNAAMTEPVGPSFISLPVDLLGSSEGIDTTVPNPPANTPAKPVGVVADGWQKAADQAAALLAEAKHPVLVVGAAAIRSGAVPAIRALAERLNIPVITTYIAKGVLPVGHELNYGAVTGYMDGILNFPALQTMFAPVDLVLTVGYDYAEDLRPSMWQKGIEKKTVRISPTVNPIPRVYRPDVDVVTDVLAFVEHFETATASFGAKQRHDIEPLRARIAEFLADPETYEDGMRVHQVIDSMNTVMEEAAEPGEGTIVSDIGFFRHYGVLFARADQPFGFLTSAGCSSFGYGIPAAIGAQMARPDQPTFLIAGDGGFHSNSSDLETIARLNLPIVTVVVNNDTNGLIELYQNIGHHRSHDPAVKFGGVDFVALAEANGVDATRATNREELLAALRKGAELGRPFLIEVPVNYDFQPGGFGALSI”, the “soluble on expression in E. coli” value was “soluble”.
With “MGSDKIHHHHHHMSNDIDLIKRLGPSAMDQIMLYLAFSAMRTSGHRHGAFLDAAATAAKCAIYMTYLEQGQNLRMTGHLHHLEPKRVKIIVEEVRQALMEGKLLKTLGSQEPRYLIQFPYVWMEQYPWIPGRSRIPGTSLTSEEKRQIEHKLPSNLPDAQLVTSFEFLELIEFLHKRSQEDLPPEHRMELSEALAEHIKRRLLYSGTVTRIDSPWGMPFYALTRPFYAPADDQERTYIMVEDTARYFRMMKDWAEKRPNAMRALEELDVPPERWDEAMQELDEIIRTWADKYHQVGGIPMILQMVFGRKED” the “soluble on expression in E. coli” value was “not soluble”.
For “MAHLSYWFKQALELEQPQPAKPLNEDIAADVAIIGGGYTGLWTAIMIKQQAPKKHVVVIEKGLCGSGASGANGGCMLTWSTKFPTLKRLFGEAQAAWLVKESEQAVLEIDAFCKQHHIDAQLSLKGVYYTATNHVQAGSMQPVVDELSRLGVNSWRRCKEDELHANTGSPRHLEGFHSSVAASVQPALLARGLRRVALEMGIEIFENTPMTKLDFGQPATVSTPDAQIKAKQVVLALNAWMVEHFTQFKNSIVVVSSDMVITKPLGESLRKTGWQAGTSVLDSRIFVHYYRDTPDGRLMLGKGGNQFSFNNQVDVMFNKPTRYQNLLRKSFDKLFPSLKEAEFEYSWTGGSDRSTSGFPFFGKLNEQRNVFYGFGYSGNGVAQTRMGGKILSSMVLGLDNEWTRSGLAKGPLGHFPPEPFRWIGAMTVRNAVRRKEEAEDCGQKPFIWDKWLAKLAGPAGKADKLDLEHHHHHH”, the “soluble on expression in E. coli” value was “soluble”.
With “MQFFTSDTHFFHKDLLGDSDFAPRPFASVDEMNQTIIDNWNARVAETDTVYHLGDIALYFTKPAIKSDEAVFNVLSQLNGHLELIKGNHDSRALFKYLAAHNFSDHGQPKFAFHDVGALIKYDHRQYYLTHYPMMLGIVNQIINLHGHIHHYAVPVKENINVGVDTPEQRYLTTSVPFGTPFSPTEIEQMVTGKAQEFREKQLEHHHHHH” the “soluble on expression in E. coli” value was “not soluble”.
For “MEQQLNLGHLLTAARLLDIGALDISSLDLGALTSTSSSPGSSSPAMFDLSNESELRSLFCGKLKVDKKQSSCASNASTSSQPYCSSPPARKSSKHSRTAHNELEKTRRANLRGCLETLKMLVPCVSDATRNTTLALLTRARDHIIELQDSNAAQMKKLNDLRDEQDELVAELAQLQADEEVAQATSQACQTLSQSRPESRASSFTSTSSRDSPCYLEYSPSSKPMDSHKPTIIDLYAEGLIPRGPITFPRPLVYPHNVFDLMNLPPTPFDVSQFLPINLQV”, the “soluble on expression in E. coli” value was “not soluble”.
In the case of “MLSAFFKTAHCALRNMPIQTDLVGKWNFVSSENFDEYLKEVGVGWAIRTIATKTKPALEFAVNGDEWTMNSNSTFKNYTLKWKLGTASDEKTADGRDVSSVFSIENDHLVQIETGKGGGKDSRIERYIENGKLVIVCTCNGVKCTRVYEKAA”, the “soluble on expression in E. coli” value is reported as “not soluble”.
In the case of “MAHHHHHHMGTLEAQTQGPGSMNDYKLFRCIQCGFEYDEALGWPEDGIAAGTRWDDIPDDWSCPDCGAAKSDFEMVEVARS”, the “soluble on expression in E. coli” value is reported as “soluble”.
For “MPKETFFNLPKDKRNLIISAAMDEFSKAGYNTASINQICKKSNIPKGSFYQYFTDKLDLYVYIMTLTIEEKIKFFSSAIAEFHTLTFLEQFRLLFLKGLEFAKKHPQYAALADQFSKEDNESVKSAVIKEGDKQAESLFMQMIHNAKTKGEIDSKVDSLALCLLLQSLNSAVNKYMIGKFGGISYEYNQEDINNFVDSLLDIIFSGIQNKAD”, the “soluble on expression in E. coli” value was “not soluble”.
For “MAHHHHHHERASLITTGPYGHQSGAVYVGNYKVVNRHLATHVDWQNCVWEDYNRDLLVSTTTAHGCDTIARCQCTTGVYFCASKSKHYPVSFEGPGLVEVQESEYYPKRYQSHVLLATGFSEPGDAGGILRCEHGVIGLVTMGGEGVVGFADVRDLLWLEDDAMEQ”, the “soluble on expression in E. coli” value was “soluble”.
For “MGSDKIHHHHHHMPKRPVRKPGVFARLEDLYTRMETAYNATAAAAGLTCTGCDDNCCRTHFRHHTRIEWAYLWKGMLSLSPERREAYLERAKDVVAQCDAALAAGVVPRVMCPLNDEGRCGLYKYRLMICRMHGTRNILRLPDGRTQVFRGCHRFDNCTAQFADADRPSLDRTPLYTELAKLEMEHLGPTAARQQRVDLTLAEMLVYGPPKP”, the “soluble on expression in E. coli” value was “not soluble”.
For “MTENVEYIRVLLKSSQAEVQMLREQNEFRDDLLKMFKVKLEVNALNNLPVRRNLSVEISNLETKKLKTEIAFLKEELGREGKKLTIANTVHEQLKKDLEAEKRNSMFLSELLTFYQNGHQPQLPAEDQFVDFLQTETRSVKEALKEKEEEVKRLLVDMEGKTFQNLTEKGRMEEEMNDAKREAQILRNEMKSLQKNMTAKENELLGYLRDASETHTEMQKDYKIQILELQRRNRILERHLDNIQ”, the “soluble on expression in E. coli” value was “not soluble”.

— the DeepSol protein solubility set
